Results on four molecules are retold here after paper PMC12264004, “Super-resolution imaging of native fluorescent photoreceptors in chytrid fungal eyes” (The EMBO Journal, 2025).

Data set [1] deals with T1, CaRGC (homodimeric, full-length).
T1 construct: homodimer; crude membrane fraction (HEK293T); gene as used in Scheib et al 2018
In words: cGMP by reverse-phase HPLC, Hill fit, crude membranes. Format: biochemical, Catenaria anguillulae. The following applies: light-triggered; 10 mM MgCl2; HEPES pH 7.4.

Substrate in data set [2]: Nc1nc2c(ncn2[C@@H]2O[C@H](COP(=O)(O)OP(=O)(O)OP(=O)(O)O)[C@@H](O)[C@H]2O)c(=O)[nH]1
Briefly: cGMP by reverse-phase HPLC, Hill fit. In kind it is biochemical, Rhizoclosmatium globosum. As to conditions: GTP:MnCl2 1:2.

`Nc1nc2c(ncn2[C@@H]2O[C@H](COP(=O)(O)OP(=O)(O)OP(=O)(O)O)[C@@H](O)[C@H]2O)c(=O)[nH]1` [GTP]: the Km in data set [1] was determined as 470 ± 50 µM.

B1: RGC1-cat (Rhizoclosmatium globosum) (protein)
chain: NGAEEYASVTVFFSDITNFVALSGKSSTKDMLATLNKLWVEYDVICKRWGVYKVETIGDAFLGVVGAPDRIPDHAERAANFAIDVIRMVQDFRTVNDEEIVTRIGLNSGPITAGILGDSNPHWCIVGDAVNTASRMESTSKPMRIHISENTYKLINGKGFKLEGPDVMNIKGKGTMNTYWINGRG
notes: soluble catalytic domain aa 365-551, C-terminal His-tag, E. coli ArcticExpress (DE3), 24,997 g/mol, homodimer
On to B1, for which the Km in data set [2] turned out to be 5530 µM.

B2: RGC1-cat/NeoR-cat (Rhizoclosmatium globosum) (protein)
chain 1: B1 chain
chain 2: TGAEEYSCVTVFFSDIANFTPLSQRTSTKDMLASLNNMWIEYDKISKKWGMYKVETIGDAFLGVVGAPDRVPDHAERAAEFSIDIIDMIKDFRLVTGEPIQIRAGLNSGPVTAGILGESNPHWCIVGDTVTIASKMEATSKHMKIHIAESTFNLIKSSGKFRTSDSEPVTIKGNVINTFFIEGRA
notes: equimolar mixture of purified C-terminally His-tagged catalytic domains (E. coli); heterodimer, some RGC1-cat homodimer remains
B2: in data set [2] (equimolar mixture), the Km was determined as 1540 µM.

B3: RGC2-cat/NeoR-cat (Rhizoclosmatium globosum) (protein)
chain 1: ATGSEEYSSVTVFFSDVTNFHALSNKNSTKEMLATLNKLWIEYDVICKRWGVYKVETIGDAFLGVVGAPERVPDHAERAANFAVDVISMVQDFRTDKGEELITRVGLNSGPITAGILGDSNPHWCIVGDAVNTASRMESTSKPMRIHISENTYKLIKNKGFRLEGPDVMNIKGKGTMNTYWINGRS
chain 2: B2 chain 2
notes: equimolar mixture of purified C-terminally His-tagged catalytic domains (E. coli); heterodimer
Take B3: the Km in data set [2] (equimolar mixture) was 980 µM.
